US20140369964A1 (GLYTECH, published 2014)
Each block holds one binder with its values, some of them ahead of it.

Molecular target: T1, IFN-α/β receptor 2 (UniProt P48551 27-243, limits assumed)
T1 sequence (looked up): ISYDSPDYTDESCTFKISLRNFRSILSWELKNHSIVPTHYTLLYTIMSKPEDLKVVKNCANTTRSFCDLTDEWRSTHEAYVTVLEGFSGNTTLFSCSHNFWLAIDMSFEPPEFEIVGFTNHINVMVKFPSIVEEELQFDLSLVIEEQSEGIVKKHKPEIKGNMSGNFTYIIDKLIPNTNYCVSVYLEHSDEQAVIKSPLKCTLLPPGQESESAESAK
Assay: SPR (ProteOn XPR36), receptor amine-coupled to GLM chip, IFN-β as analyte at 0.31-25 nM
Protocol: The binding affinity of the non-heated or heat-treated chemically synthesized IFN-β against IFN-α/β receptor 2 was measured with ProteOn XPR36 (Bio-rad) employing SPR (Surface Plasmon Resonance technology).
Specifically, 10 μg/mL of IFN-α/β receptor 2 (10 mM acetic acid buffer, pH 4.5) was fixed to a GLM chip (Bio-rad) according to instructions by employing an amine coupling kit (Bio-rad) and flowing 0.005% Tween 20/PBS at a flow rate of 30 μL/min. The non-heated disialo sugar chain attached polypeptide (10) prepared in Example 3, or the heat-treated disialo sugar chain attached polypeptide obtained by subjecting the disialo sugar chain attached polypeptide heat-treated in the above 9-1. to the de-Acm step, the benzyl group deprotection step, and the folding step described in the above 3-4.-3-6. were adjusted to 0.31-25 nM with 0.1% BSA and 2 mM EDTA/PBS, and added to the chip at a flow rate 50 of μL/min. The analysis with glycosylated polypeptide (10) was carried out at each of five concentrations of 0.31 nM, 0.93 nM, 2.8 nM, 8.3 nM, and 25 nM. The binding constant (ka), the dissociation constant (kd), and the binding dissociation constant (Kd) were analyzed with ProteOn Manager software. The results thereof are shown in FIG. 38, FIG. 39, and Table 1.

Kd: 0.49 nM
koff: 0.0027 s⁻¹
kon: 5.5e+06 M⁻¹ s⁻¹
B1: non-heated disialo sugar chain attached polypeptide (10) (ligand)
chain: MSYNLLGFLQRSSNFQCQKLLWQLNGRLEYCLKDRMNFDIPEEIKQLQQFQKEDAALTIYEMLQNIFAIFRQDSSSTGWNETIVENLLANVYHQINHLKTVLEEKLEKEDFTRGKLMSSLHLKRYYGRILHYLKAKEYSHCAWTIVRVEILRNFYFINRLTGYLRN
modifications: disialo sugar chain on Asn at position 80; folded, with a mass loss of 2 Da after folding (disulfide bond, Cys 31-Cys 141 in interferon β)
notes: also called glycosylated polypeptide (10); disialo IFN-β

Kd: 0.53 nM
koff: 0.0023 s⁻¹
kon: 4.3e+06 M⁻¹ s⁻¹
B2: heat-treated disialo sugar chain attached polypeptide (ligand)
chain: B1 chain
modifications: disialo sugar chain on Asn at position 80; folded as in step 3-6
notes: also called heat-treated chemically synthesized IFN-β
